The text below walks through data of article PMC3507513 (Molecular cell, 2010).

The target of series [1] is T1, HET-S(1–227) (Podospora anserina), B2ACC7.
T1 chain: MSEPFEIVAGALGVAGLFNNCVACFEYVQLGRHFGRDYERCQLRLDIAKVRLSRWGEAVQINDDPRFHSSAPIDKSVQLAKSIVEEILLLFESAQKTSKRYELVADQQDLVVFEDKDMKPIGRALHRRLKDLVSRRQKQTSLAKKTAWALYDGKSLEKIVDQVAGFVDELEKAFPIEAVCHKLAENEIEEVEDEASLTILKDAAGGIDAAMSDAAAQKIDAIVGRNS
The experiment in a line: NMR titration. The note with it: remark: other sources report otherwise.

Series [2] concerns the target T1, HET-S(1–227) (Podospora anserina), …. The experiment in a line: […]. The note with it: remark: other sources report otherwise.
The series “NMR titration” deals with the molecule itself. The experiment in a line: NMR titration.

Usually Kd stands for the free concentration of one partner at which half of the binding sites on the other are occupied at equilibrium, for simple one-to-one binding. Read a high Kd as a looser complex. What is called stoichiometry N is the number of molecules, sites or subunits per partner or assembly.

B1: HET-S(1–227), B2ACC7 1-227 (domain or fragment)
chain: T1 chain
In series [1], B1 yielded a Kd of 78 µM. In addition, the stoichiometry N in series [2] amounted to 2.

B2: HET-s(1–227) (domain or fragment, Podospora anserina, UniProt Q03689 1-227, looked up)
chain: MSEPFGIVAGALNVAGLFNNCVDCFEYVQLGRPFGRDYERCQLRLDIAKARLSRWGEAVKINDDPRFHSDAPTDKSVQLAKSIVEEILLLFESAQKTSKRYELVADQQDLVVFEDKDMKPIGRALHRRLNDLVSRRQKQTSLAKKTAWALYDGKSLEKIVDQVARFVDELEKAFPIEAVCHKLAEIEIEEVEDEASLTILKDAAGGIDAAMSDAAAQKIDAIVGRNS
B2 had a dissociation constant Kd in “NMR titration” of 320 ± 37 µM.
